Results on one substance are retold here after publication PMC11090050.

The test addresses MBP-Rubicon RH (Rubicon Homology domain of Rubicon, wild type) (UniProt Q92622). Put plainly: ITC; MBP-Rubicon RH (80 µM) in the chamber, RAB7A (800 µM) in the syringe; 13 injections at 25°C; 50 mM HEPES 7.5, 150 mM NaCl, 2 mM MgCl2, 10 mM TCEP; simple single-binding-site fit. In general terms: Isothermal titration calorimetry measures the heat released or taken up as one component is titrated into another.
Chain of UniProt Q92622 (Q92622 699-949): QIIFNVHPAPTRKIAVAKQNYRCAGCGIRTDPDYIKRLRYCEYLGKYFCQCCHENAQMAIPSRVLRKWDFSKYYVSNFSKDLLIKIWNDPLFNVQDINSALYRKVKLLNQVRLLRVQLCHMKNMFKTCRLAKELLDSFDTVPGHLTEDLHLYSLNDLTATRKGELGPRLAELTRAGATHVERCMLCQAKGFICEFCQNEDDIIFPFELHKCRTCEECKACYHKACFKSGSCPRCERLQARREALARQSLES

One may read the Kd as the concentration at which binding is half-saturated. The low end stands for tighter binding, the high end for weaker binding. The stoichiometry N is the number of molecules, sites or subunits per partner or assembly. Substance “RAB7A (recombinantly purified, unlabelled, as used for ITC) (from UniProt P51149 2-182) (natural protein)” registered a Kd of 1.7 µM and a stoichiometry N of 0.7.
